Data published in paper PMC3594540 (Nature structural & molecular biology, 2013).

What was measured:
[1] = biological target: T1, PLCβ3 I1129E V1133E I1136E triple mutant (human, UniProt Q01970); assay: cell-based or functional assay
T1 chain: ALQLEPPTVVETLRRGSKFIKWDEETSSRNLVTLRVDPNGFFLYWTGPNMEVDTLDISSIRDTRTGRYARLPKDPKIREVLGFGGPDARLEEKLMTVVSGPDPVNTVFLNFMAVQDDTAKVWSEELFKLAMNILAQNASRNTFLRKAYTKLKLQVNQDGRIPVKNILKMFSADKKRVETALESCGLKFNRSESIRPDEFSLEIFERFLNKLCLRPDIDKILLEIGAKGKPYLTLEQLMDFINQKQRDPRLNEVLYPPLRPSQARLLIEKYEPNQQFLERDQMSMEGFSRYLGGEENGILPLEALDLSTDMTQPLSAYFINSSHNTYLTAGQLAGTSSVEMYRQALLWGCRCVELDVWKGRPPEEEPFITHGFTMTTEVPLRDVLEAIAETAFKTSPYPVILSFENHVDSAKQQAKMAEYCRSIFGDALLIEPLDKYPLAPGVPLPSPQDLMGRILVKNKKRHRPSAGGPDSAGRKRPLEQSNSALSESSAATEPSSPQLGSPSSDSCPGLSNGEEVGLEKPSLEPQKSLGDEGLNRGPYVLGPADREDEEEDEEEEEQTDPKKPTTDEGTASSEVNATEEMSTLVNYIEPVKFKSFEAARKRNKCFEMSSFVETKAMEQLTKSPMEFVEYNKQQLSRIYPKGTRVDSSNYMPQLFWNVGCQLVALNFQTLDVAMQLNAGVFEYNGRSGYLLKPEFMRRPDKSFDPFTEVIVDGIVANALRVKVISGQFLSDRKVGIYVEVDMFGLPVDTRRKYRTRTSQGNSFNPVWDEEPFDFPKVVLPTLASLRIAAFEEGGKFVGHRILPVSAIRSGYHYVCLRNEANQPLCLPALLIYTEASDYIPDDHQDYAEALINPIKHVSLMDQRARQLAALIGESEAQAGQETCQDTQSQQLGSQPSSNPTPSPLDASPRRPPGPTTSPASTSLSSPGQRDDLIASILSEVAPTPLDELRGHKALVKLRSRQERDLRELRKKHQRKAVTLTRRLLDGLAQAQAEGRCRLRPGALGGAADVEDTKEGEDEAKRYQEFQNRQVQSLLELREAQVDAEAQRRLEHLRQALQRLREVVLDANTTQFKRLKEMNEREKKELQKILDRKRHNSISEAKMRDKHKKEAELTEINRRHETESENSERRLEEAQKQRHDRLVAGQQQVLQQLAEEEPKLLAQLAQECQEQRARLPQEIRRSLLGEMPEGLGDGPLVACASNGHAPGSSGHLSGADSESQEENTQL

PLCβ3 L876A EEE = biological target: T2, PLCβ3 L876A EEE (human, UniProt Q01970); assay: cell-based or functional assay
T2 chain: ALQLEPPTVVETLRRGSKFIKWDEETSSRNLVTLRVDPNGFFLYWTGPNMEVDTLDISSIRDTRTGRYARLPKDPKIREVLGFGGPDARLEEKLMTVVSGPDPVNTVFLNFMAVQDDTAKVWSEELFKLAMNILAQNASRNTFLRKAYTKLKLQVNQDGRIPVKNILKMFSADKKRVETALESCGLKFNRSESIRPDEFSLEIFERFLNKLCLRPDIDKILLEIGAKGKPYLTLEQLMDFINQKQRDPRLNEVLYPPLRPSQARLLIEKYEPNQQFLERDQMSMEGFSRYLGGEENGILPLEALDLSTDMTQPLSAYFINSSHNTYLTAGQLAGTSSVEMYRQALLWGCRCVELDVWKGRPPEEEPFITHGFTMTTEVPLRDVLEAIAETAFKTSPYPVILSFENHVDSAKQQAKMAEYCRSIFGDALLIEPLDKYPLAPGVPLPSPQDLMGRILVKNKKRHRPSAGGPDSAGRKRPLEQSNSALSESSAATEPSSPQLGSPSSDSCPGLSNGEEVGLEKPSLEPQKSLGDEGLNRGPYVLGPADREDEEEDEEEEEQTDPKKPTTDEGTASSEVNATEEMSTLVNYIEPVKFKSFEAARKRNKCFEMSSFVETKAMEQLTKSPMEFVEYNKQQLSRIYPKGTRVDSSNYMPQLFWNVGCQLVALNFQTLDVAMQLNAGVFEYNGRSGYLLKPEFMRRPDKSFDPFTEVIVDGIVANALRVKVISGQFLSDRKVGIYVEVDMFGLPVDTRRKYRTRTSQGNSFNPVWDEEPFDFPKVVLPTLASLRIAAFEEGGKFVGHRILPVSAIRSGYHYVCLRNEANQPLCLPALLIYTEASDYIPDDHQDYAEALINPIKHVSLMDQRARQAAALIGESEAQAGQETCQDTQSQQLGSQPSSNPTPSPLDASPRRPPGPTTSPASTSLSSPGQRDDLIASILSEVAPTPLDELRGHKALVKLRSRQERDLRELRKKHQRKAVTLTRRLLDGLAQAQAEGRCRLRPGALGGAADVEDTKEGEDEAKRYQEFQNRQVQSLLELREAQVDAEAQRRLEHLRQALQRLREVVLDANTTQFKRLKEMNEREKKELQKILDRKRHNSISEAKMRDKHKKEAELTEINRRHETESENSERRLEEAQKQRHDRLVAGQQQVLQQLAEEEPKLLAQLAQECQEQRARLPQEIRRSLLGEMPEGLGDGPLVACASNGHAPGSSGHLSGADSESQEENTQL

B1: murine Gαq (residues 7–359), biotinylated for bead binding (natural protein)
chain: MACCLSEEAKEARRINDEIERQLRRDKRDARRELKLLLLGTGESGKSTFIKQMRIIHGSGYSDEDKRGFTKLVYQNIFTAMQAMIRAMDTLKIPYKYEHNKAHAQLVREVDVEKVSAFENPYVDAIKSLWNDPGIQECYDRRREYQLSDSTKYYLNDLDRVADPSYLPTQQDVLRVRVPTTGIIEYPFDLQSVIFRMVDVGGQRSERRKWIHCFENVTSIMFLVALSEYDQVLVESDNENRMEESKALFRTIITYPWFQNSSVILFLNKKDLLEEKIMYSHLVDYFPEYDGPQRDAQAAREFILKMFVDLNPDSDKIIYSHFTCATDTENIRFVFAAVKDTILQLNLKEYNLV
Question: Which results are given for B1?
Answer: EC50 of Gαq-stimulated PIP2 hydrolysis ([3H]-IP3 release from liposomes) [1]: 280 nM; Max specific activity of Gαq-stimulated PIP2 hydrolysis (liposomes) [1]: 1900 nmol IP3/min/nmol PLCβ3; EC50 of Gαq-stimulated PIP2 hydrolysis ([3H]-IP3 release from liposomes) (PLCβ3 L876A EEE): 32 nM; Max specific activity of Gαq-stimulated PIP2 hydrolysis (liposomes) (PLCβ3 L876A EEE): 3900 nmol IP3/min/nmol PLCβ3
